Reference: publication doi:10.1101/2024.11.06.622366
Read-outs that look alike come from different tables or passages of the source.

Assays:
[1] = target: 11S, large fragment of a split luciferase
[2] = target: 11S, large fragment of a split luciferase; remark: listed apart in the source
[3] = target: 11S, large fragment of a split luciferase; remark: listed apart in the source
[4] = target: 11S, large fragment of a split luciferase; remark: listed apart in the source
[5] = target: 11S, large fragment of a split luciferase; remark: listed apart in the source
[6] = target: 11S, large fragment of a split luciferase; remark: listed apart in the source
[7] = target: 11S, large fragment of a split luciferase; remark: listed apart in the source
[8] = target: 11S, large fragment of a split luciferase; remark: listed apart in the source

Substance “PINK1 DDL I111S (from UniProt Q9BXM7 78-581)” has a Kd [1] of 144 nM.

“PINK1(3EA) DDL (from UniProt Q9BXM7 78-581)” gave a Kd [2] of 715 nM.

Substance “PINK1(3EA) DLD (from UniProt Q9BXM7 78-581)” has a Kd [3] of 93.7 nM.

“PINK1(3EA) LDD (from UniProt Q9BXM7 78-581)” gave a Kd [4] of 284 nM.

In the case of “PINK1(ALALAL) DDL (from UniProt Q9BXM7 78-581)”, the Kd [5] is reported as 133 nM.

For “PINK1Δ(1-50) DDL (from UniProt Q9BXM7 51-581)”, the Kd [6] was 238 nM.

“PINK1Δ(1-91) DDL (from UniProt Q9BXM7 92-581)” showed a Kd [7] of 187 nM.

With “PINK1Δ(1-150) DDL (from UniProt Q9BXM7 151-581)” the Kd [8] was 447 nM.
